Data on five substances can be found in PMC4092071.

Holding throughout (assay): equilibrium inhibitor binding assay (free trypsin by residual activity on a fluorogenic substrate); BPTI variants (0-100 pM) and trypsin (50 pM) in solution, 15 h at 22°C, 0.1 M Tris-HCl (pH 8.0), 1 mM CaCl2, 0.05% Tween 20; free trypsin from cleavage of Z-Gly-Pro-Arg-AMC; free protease against total inhibitor fitted with a quadratic equation
Assay [1] addresses sulfated human cationic trypsin (human).
For assay [2], the target named is sulfated human anionic trypsin (human) (UniProt P07478).
Assay [3] concerns the target non-sulfated human cationic trypsin (human).
The target of assay [4] is non-sulfated human anionic trypsin (human) (UniProt P07478).

“BPTI variant carrying Lys at P2′ (P1′ Ala, P3′ Asp, P4′ Ile, P19′ Val) (designed binder)”: the equilibrium dissociation constant (Kd) – broadly, a measure of binding affinity in units of concentration – turned out to be 3.3 pM in assay [1], 1.3 pM in assay [2], 3.9 pM in assay [3] and 1.6 pM in assay [4].

For the substance “BPTI variant carrying Ile at P2′ (P1′ Ala, P3′ Asp, P4′ Ile, P19′ Val) (designed binder)”, the Kd in assay [1] stood at 3.2 pM; in assay [2], 1.3 pM; in assay [3] it was 0.5 pM; in assay [4] it was 0.3 pM.

For “BPTI variant carrying Leu at P2′ (P1′ Ala, P3′ Asp, P4′ Ile, P19′ Val) (designed binder)”, the equilibrium dissociation constant (Kd) in assay [1] came to 13.4 pM; in assay [2] it was 4 pM; in assay [3], 1.2 pM; in assay [4], 1.2 pM.

For the substance “BPTI variant carrying Ala at P2′ (P1′ Ala, P3′ Asp, P4′ Ile, P19′ Val) (designed binder)”, the Kd turned out to be 7.9 pM in assay [1], 2.2 pM in assay [2], 0.7 pM in assay [3] and 0.3 pM in assay [4].

Take “BPTI variant carrying Arg at P2′ (P1′ Ala, P3′ Asp, P4′ Ile, P19′ Val) (designed binder)”: the dissociation constant Kd came out at 1 pM in assay [1], 0.4 pM in assay [2], 0.9 pM in assay [3] and 0.7 pM in assay [4].
